Key:
Flag tagged ORC5 = molecular target: T1, Flag tagged ORC5 (UniProt O43913)
T1 sequence: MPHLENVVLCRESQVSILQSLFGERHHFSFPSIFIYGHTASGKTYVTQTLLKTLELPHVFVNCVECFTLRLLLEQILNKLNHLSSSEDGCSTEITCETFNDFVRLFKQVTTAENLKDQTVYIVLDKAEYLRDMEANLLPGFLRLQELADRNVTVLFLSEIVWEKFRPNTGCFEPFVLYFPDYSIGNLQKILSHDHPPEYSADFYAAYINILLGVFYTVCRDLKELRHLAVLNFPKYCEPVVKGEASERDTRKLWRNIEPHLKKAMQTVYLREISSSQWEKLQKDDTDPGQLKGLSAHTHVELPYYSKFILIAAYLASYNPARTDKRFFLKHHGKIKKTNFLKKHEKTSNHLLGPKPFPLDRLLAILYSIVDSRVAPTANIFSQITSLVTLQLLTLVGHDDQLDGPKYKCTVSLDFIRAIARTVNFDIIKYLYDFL

Flag tagged ORC5, O43913 = molecular target: T2, Flag tagged ORC5, O43913
T2 chain: T1 sequence

Which “ubiquitination of Flag-ORC5 (high-molecular weight ubiquitin adducts after anti-Flag IP)” value (Flag tagged ORC5) does the source give for Xenopus Myc6-tagged Obi1 WT here?
The value was “both human and xenopus Obi1, sharing 35% identity of their amino acid sequence, are able to ubiquitinate ORC5”.

B1: human Myc6-tagged Obi1 WT (protein)
chain: MAQTVQNVTLSLTLPITCHICLGKVRQPVICINNHVFCSICIDLWLKNNSQCPACRVPITPENPCKEIIGGTSESEPMLSHTVRKHLRKTRLELLHKEYEDEIDCLQKEVEELKSKNLSLESQIKTILDPLTLVQGNQNEDKHLVTDNPSKINPETVAEWKKKLRTANEIYEKVKDDVDKLKEANKKLKLENGGLVRENLRLKAEVDNRSPQKFGRFAVAALQSKVEQYERETNRLKKALERSDKYIEELESQVAQLKNSSEEKEAMNSICQTALSADGKGSKGSEEDVVSKNQGDSARKQPGSSTSSSSHLAKPSSSRLCDTSSARQESTSKADLNCSKNKDLYQEQVEVMLDVTDTSMDTYLEREWGNKPSDCVPYKDEELYDLPAPCTPLSLSCLQLSTPENRESSVVQAGGSKKHSNHLRKLVFDDFCDSSNVSNKDSSEDDISRSENEKKSECFSSPKTGFWDCCSTSYAQNLDFESSEGNTIANSVGEISSKLSEKSGLCLSKRLNSIRSFEMNRTRTSSEASMDAAYLDKISELDSMMSESDNSKSPCNNGFKSLDLDGLSKSSQGSEFLEEPDKLEEKTELNLSKGSLTNDQLENGSEWKPTSFFLLSPSDQEMNEDFSLHSSSCPVTNEIKPPSCLFQTEFSQGILLSSSHRLFEDQRFGSSLFKMSSEMHSLHNHLQSPWSTSFVPEKRNKNVNQSTKRKIQSSLSSASPSKATKS
What does the source list for B1?
polyubiquitination of Flag-ORC5 (HA-ubiquitin adducts after anti-Flag IP) (Flag tagged ORC5, O43913): only the full length Obi1 protein is able to polyubiquitinate ORC5; ubiquitination of Flag-ORC5 (high-molecular weight ubiquitin adducts after anti-Flag IP) (Flag tagged ORC5, O43913): both human and xenopus Obi1, sharing 35% identity of their amino acid sequence, are able to ubiquitinate ORC5

From patent US20160122742A1 (published 2016)
